A short description of the series: soluble on expression in E. coli; label from the status in PepcDB or PDB records.
For “MAHHHHHHMEDGEALDLQDALKPEVKERPVRLIKIERHDGTKAFLNSVIEMAQVVLDNMPPDACYKDIAIKLKTKLDEVEKGTWHVIVGSHFGANVTNDSETLVNFKIDEMHILLFRSGPPERPMSLNDEGS”, the “soluble on expression in E. coli” value is listed as “soluble”.

As to “MARPQSKKKQTQVARRPRRRGRWVPPSRLIAGRDFPEFLRQAVLLSGSLRQAARKLRVSYSTLRGWLGRRCEEPPEGERDLLAGHVAAIRTELDVAAEHLAIVRGQLDALERGDDG”, the “soluble on expression in E. coli” value is “not soluble”.

With “MLQPPKIVAELSANHNQDLNLAKESLHAIKESGADFVKLQTYTPSCMTLNSKEDPFIIQGTLWDKENLYELYQKASTPLEWHAELFELARKLDLGIFSSPFSSQALELLESLNCPMYKIASFEIVDLDLIEKAARTQKPIILSSGIATHTELQDAISLCRRVNNFDITLLKCVSAYPSKIEDANLLSMVKLGEIFGVKFGLSDHTIGSLCPILATTLGASMIEKHFILNKSLQTPDSAFSMDFNGFKSMVEAIKQSVLALGEEEPRINPKTLEKRRFFARSLFVIKDIQKGEALTENNIKALRPNLGLHPKFYKEILGQKASKFLKANTPLSADDIERSLLEHHHHHH”, the “soluble on expression in E. coli” value is on record as “not soluble”.

For the sequence “MVTKAKQIREKESKVAEFKYKNLTQEEQDKLDAATFRRLLAHLDANKDVQNIDLMILAGFCRNCFSKWYKAEAENLSLDLDIDDARERVYGMTYDEWKQNHQPAATPEQLAAFEARQKK”, the “soluble on expression in E. coli” value is on record as “not soluble”.

Consider “MRILNQDNNIAVRNVLLMLTMEEAAELKDDLERLLSKKALNDHSHINDLEYEHELTISLYDENNIEEFDERIKKLIIQDE”, for which the “soluble on expression in E. coli” value is “not soluble”.

“PFEPLITAVIETSLNTLIKDDPALGRRLARLKGQVIQVHLKEIDKTLTFVFSQQIDVLGNYEGQPDCYLSLNLSVLPELRDQANITRLIKQDKLELEGDIQLAQKFSQLMTDCKPDIEEWLSRVTGDVVAHTLVQGTKNVGGFFVSQAEKHQRHLAQVVTEEWKLAPAPLEVAYFCDQVDEVRSQASRVEARLNALLSKVGSDKPA”: the “soluble on expression in E. coli” value is given as “not soluble”.

For the sequence “MSLSEFWKEKHGEREQDHEKTIMDGYSVANRFDGTGGGWGYSANSVEAIQFKVSKEIRLVGVGLYGGRGEYISKLKLYRQIGTEADELYVEQITETDETVYDCGAHETATMLFSQPIVIQPNHWHVVSAKISGPSSDCGANGKRHVECDGVTFQFRKSAVSNNGTDVDVGQIPELYYQIVGGSESRDESDSNKQLSISREGHHHHHH”, the “soluble on expression in E. coli” value is “soluble”.

In the case of “MERINFIFGIHNHQPLGNFGWVFEEAYNRSYRPFMEILEEFPEMKVNVHFSGPLLEWIEENKPDYLDLLRSLIKRGQLEIVVAGFYEPVLAAIPKEDRLVQIEMLKDYARKLGYDAKGVWLTERVWQPELVKSLREAGIEYVVVDDYHFMSAGLSKEELFWPYYTEDGGEVITVFPIDEKLRYLIPFRPVKKTIEYLESLTSDDPSKVAVFHDDGEKFGVWPGTYEWVYEKGWLREFFDAITSNEKINLMTYSEYLSKFTPRGLVYLPIASYFEMSEWSLPAKQAKLFVEFVEQLKEEGKFEKYRVFVRGGIWKNFFFKYPESNFMHKRMLMVSKAVRDNPEARKYILKAQCNDAYWHGVFGGIYLPHLRRTVWENIIKAQRYLKPENKILDVDFDGRAEIMVENDGFIATIKPHYGGSIFELSSKRKAVNYNDVLPRRWEHYHEVPEATKPEKESEEGIASIHELGKQIPEEIRRELAYDWQLRAILQDHFIKPEETLDNYRLVKYHELGDFVNQPYEYEMIENGVKLWREGGVYAEEKIPARVEKKIELTEDGFIAKYRVLLEKPYKALFGVEINLAVHSVMEKPEEFEAKEFEVNDPYGIGKVRIELDKAAKVWKFPIKTLSQSEAGWDFIQQGVSYTMLFPIEKELEFTVRFREL”, the “soluble on expression in E. coli” value was “soluble”.

As for “MAHHHHHHMMSAAARKRRCQQARQREPAAPQQKGEASRHDDTAEPERKPLTGAVSPAINSAAEAPSATPPVLSSHFSLKPGLPTSPPLMHKRTATRCGSVDEDALFFQTYENVADMRFASLDEIAQSVVDLRQRVQQRMQHQRLLTDIEALHERHGSALLRSMPHVLNVLEAAAAVDDGAEGPSGRSGGGQFTMSPEQVYARMVRQIDEQRSGHEQHQRDPDNAEKVVGILHLRQLPVGRPIPPRIRQLRESAALAQVAASEEARRRSRLLPRESKDRSSSTTKRGVSVSAAVSIQFADPAAPLMASSTGGGRSSSLTTVMELRRWRPYLERRNRLSAALTRIFDATTLRAVYSYYRTCALLQRDAAVVRRLVPDRQQWSALPSIEELAVLDRRLEVMFEGRPSWDGRQGA”, the “soluble on expression in E. coli” value was “not soluble”.

Regarding “MGSDKIHHHHHHMARQFVYFMQGLTKAYPTRKVLDNVHLSFYPDAKIGVLGVNGAGKSTLLKIMAGIDKEYTGEAWVAEGARVGYLEQEPQLDPALTVRENVMLGVAKQKAILDRYNELAMNYSEETADEMTALQDQIESAGLWDLDSKVDQAMDALRCPPDDADVTKLSGGERRRVALCKLLLDQPDLLLLDEPTNHLDAESVSWLESHLRNYPGAILIVTHDRYFLDNVTSWILELDRGRGIPYEGNYSSWLVQKQKRLLQEGREDAAHQKTLEREQEWIASSPKARQAKSKARYQRYEELLAKASEKQTQTAQIIIPVAERLGNNVVDFEHLTKGFGDKLLIDDLTFKLPPGGIVGVIGPNGAGKTTLFRMITGQEKPDQGTITVGETVHLGYVDQSRDSLDAKKTVWEEISGGNELILLGKKEVNSRGYCSAFNFKGGDQQKKVGSLSGGERNRVHLAKMLKSGANVLLLDEPTNDLDVDTLRALEEALEDFAGCAVIISHDRWFLDRIATHILAFEDDSHVEWFEGNFQDYEKDKMRRLGQDAIIPHRAKYKKLTR”, the “soluble on expression in E. coli” value is given as “not soluble”.

“MGSSHHHHHHSSGLVPRGSHMAPSRRERERERRREQIIRAAEKAFFARGYDRVTMDEIAEEAEVNKALLYYYFKNKESLFFAVNLYGVRILHSMYRRCLELDTDGYGKVRAMVEALYSFSKEHPDYFRIYCYSGTERFELSESEDAREIVDLRTGMWRLMVEAIMEGMNDGSIRSDLDPVELSIYIHTLAINALNLDFTSRMVLEARNISRDRFWEDLEVFLESALRP”: the “soluble on expression in E. coli” value is “soluble”.

For “MAHHHHHHMFKTMMFKTMRNYFMLNFKRNYRHYSRKKNINNINRKMNDPYSDLYKMNYYGNNFKRLPNKKTKSNEYELIRTSSNSFTYSSPYPPNINYTLKPYPDSAKEFYYENRKYVMKYKNVEYIPIKRMVCKGMSRRSNWDTYYLRVEK”, the “soluble on expression in E. coli” value is on record as “not soluble”.

As to “MVLKTVALVGNPNVGKTTIFNALTGLRQHVGNWPGVTVEKKEGIMEYREKEFLVVDLPGIYSLTAHSIDELIARNFILDGNADVIVDIVDSTCLMRNLFLTLELFEMEVKNIILVLNKFDLLKKKGAKIDIKKMRKELGVPVIPTNAKKGEGVEELKRMIALMAEGKVTTNPIIPRYDEDIEREIKHISELLRGTPLAEKYPIRWLALKLLQRDEEVIKLVLKYLGQEKMDEILKHISELEEKYKRPLDIVIASQKYEFLEQLLRKFVVHE”, the “soluble on expression in E. coli” value is on record as “soluble”.

“MGCMKSKETFPFPTTLDIDKLHESEEAFIPDDSSQYRTPSPGEQQQVQEVKKLPEPGAVIGALILEFADRLASEIVEDALQQWACENIQYYNIPYIESEGSDTTIN”: the “soluble on expression in E. coli” value is “soluble”.

With “SGNLLKVLTCTDLEQEPNFFLDFENAQPTEAERETWEEVDVVLKDALGILDELQAYKGAGQEIREAIQNPNDEALQDQAWAAVVPLVGKLKKFYEFSQRLEAALHSLLRALTSETYDDPTQHLEREQALAKQFAEILHFTLRFDELKMTNPAIQNDFSYYRRTLSRMRINNVPAEGENEVNNELANRISLFYADATPMLKTLSDGTTKFVSENKNLPIENTTDVLSTMASVCKVMLETPEYRSRFSSEETVSFCLRVMVGVIILYDYVHPVGAFAKSSKIDMKGCIKVLKDQPPNSVEGLLNALRYTTKHLNDESTTKTIKSMLQ”, the “soluble on expression in E. coli” value was “soluble”.

For “AEVEHYEPLQVHVQLEKVYLDGDVSIEHKHEKVFSMDDFWAAYAGWTLVEQKKGYVLFRKQMDDISPLSKVNGYIGVSDNGVISTFHGRPEPASEPIQSFFQIDLERLESHMQKNLLKGIPFRTKAEFEDVIEHMKTYSG”, the “soluble on expression in E. coli” value is listed as “soluble”.

The values above are taken from the DeepSol protein solubility set.
